According to US20240270821A1, “GIP/GLP1/GCG TRI-RECEPTOR AGONISTS AND USES THEREOF” (priority 2023, published 2024):
Starred links: 1 amine or outer side, 2 acyl side, 3 side chain; linkers in the order of their positions; H or OH if unused. Non-standard residues stand in square brackets, D forms with d. Groups on a side chain read outwards from the residue. No end group written: not given here. *: point of attachment. C18 diacid = O=C(O)CCCCCCCCCCCCCCCCC(=O)*; γGlu = O=C(O)[C@H](CCC(=O)[*:2])N[*:1]; 4Pal = N[C@@H](Cc1ccncc1)C(=O)O; αMeL = CC(C)C[C@](C)(N)C(=O)O; Dab = NCC[C@H](N)C(=O)O; AEEA = NCCOCCOCC(=O)O; Aib = CC(C)(N)C(=O)O

Legend:
Assay in all cases: cell-based or functional assay
[1] = target: T1, human GIP receptor (human) (UniProt P48546)
T1 sequence (looked up): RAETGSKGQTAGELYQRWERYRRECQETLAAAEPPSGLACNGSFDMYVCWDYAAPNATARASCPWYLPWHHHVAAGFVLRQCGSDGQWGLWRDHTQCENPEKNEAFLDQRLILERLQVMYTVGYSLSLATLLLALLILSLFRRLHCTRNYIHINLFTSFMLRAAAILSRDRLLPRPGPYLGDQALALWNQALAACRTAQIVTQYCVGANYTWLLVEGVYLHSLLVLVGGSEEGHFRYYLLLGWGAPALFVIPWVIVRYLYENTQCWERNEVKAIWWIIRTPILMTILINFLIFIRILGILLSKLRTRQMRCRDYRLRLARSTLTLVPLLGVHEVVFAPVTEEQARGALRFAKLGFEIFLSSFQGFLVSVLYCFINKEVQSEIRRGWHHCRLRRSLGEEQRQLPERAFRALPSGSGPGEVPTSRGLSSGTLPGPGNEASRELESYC

[2] = target: hGLP-1R (Homo sapiens, UniProt P43220)
[3] = target: human glucagon receptor (human) (UniProt P47871)
human glucagon receptor (human), sequence (P47871 26-477): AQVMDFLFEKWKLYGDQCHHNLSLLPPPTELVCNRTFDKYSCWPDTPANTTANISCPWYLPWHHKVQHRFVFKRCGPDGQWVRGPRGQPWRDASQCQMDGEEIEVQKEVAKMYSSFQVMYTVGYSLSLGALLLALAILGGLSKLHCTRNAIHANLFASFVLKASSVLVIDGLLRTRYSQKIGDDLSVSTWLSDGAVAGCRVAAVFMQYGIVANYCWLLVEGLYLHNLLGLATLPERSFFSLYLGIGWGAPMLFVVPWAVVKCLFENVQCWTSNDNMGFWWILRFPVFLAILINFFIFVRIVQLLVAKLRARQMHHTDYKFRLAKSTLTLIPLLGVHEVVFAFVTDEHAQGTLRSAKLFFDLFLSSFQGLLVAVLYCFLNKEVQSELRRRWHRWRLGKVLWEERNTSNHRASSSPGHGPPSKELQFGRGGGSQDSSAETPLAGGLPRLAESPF

hGLP-1R, sequence (P43220 24-463): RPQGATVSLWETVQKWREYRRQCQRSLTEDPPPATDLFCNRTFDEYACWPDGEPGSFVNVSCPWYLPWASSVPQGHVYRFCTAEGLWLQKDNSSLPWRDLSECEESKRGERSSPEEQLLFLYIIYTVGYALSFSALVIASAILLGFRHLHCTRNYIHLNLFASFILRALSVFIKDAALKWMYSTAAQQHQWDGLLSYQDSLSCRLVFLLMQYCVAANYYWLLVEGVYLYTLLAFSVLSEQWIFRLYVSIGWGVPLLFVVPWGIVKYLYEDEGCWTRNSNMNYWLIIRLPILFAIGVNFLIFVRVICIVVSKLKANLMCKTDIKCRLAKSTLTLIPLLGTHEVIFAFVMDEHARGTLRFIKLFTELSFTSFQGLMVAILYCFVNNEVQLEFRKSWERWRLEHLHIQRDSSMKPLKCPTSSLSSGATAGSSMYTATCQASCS

B1: Example 1110 (peptide)
chain: YXQGTFTSDXSQXLDXKAQXAFIEXLIAXGPSSGAPPPSGSEE
modifications: non-natural residues, acylated Lys, C-terminal amide; synthetic construct; SITE 2: note = 2-Aminoisobutyric Acid; SITE 10: note = 3-(4-Pyridyl)-L-alanine; SITE 13: note = alpha-methyl-leucine; SITE 16: note = L-ornithine; SITE 17: note = Lysine is chemically modified through conjugation of the epsilon-amino group of the Lysine side chain with (2-[2-(2-
Work on B1 yielded a Relative cAMP EC50 [1] of 0.059 nM, a Relative cAMP EC50 [2] of 0.508 nM and a Relative cAMP EC50 [3] of 5.91 nM.

B2: Example 1113 (peptide)
chain: YXQGTFTSDXSQXLDXKAQXQFIEXLIEXGPSSGAPPPSGSEE
modifications: non-natural residues; lipidated Lys; C-terminal amide; synthetic construct; SITE 2: note = 2-Aminoisobutyric Acid; SITE 10: note = 3-(4-Pyridyl)-L-alanine; SITE 13: note = alpha-methyl-leucine; SITE 16: note = L-ornithine; SITE 17: note = Lysine is chemically modified through conjugation of the epsilon-amino group of the Lysine side chain with D-Glutami
B2 gave a Relative cAMP EC50 [1] of 0.0414 nM, a Relative cAMP EC50 [2] of 1.12 nM and a Relative cAMP EC50 [3] of 14.4 nM.

B3: Example 1116 (peptide)
chain: YXQGTFTSDXSQXLDKKAQXAFIEXLIEXGPSSGAPPPSGTE
modifications: acylated Lys AEEA-γGlu-C18 diacid; non-natural residues; C-terminal amide; synthetic construct; SITE 2: note = 2-Aminoisobutyric Acid; SITE 10: note = 3-(4-Pyridyl)-L-alanine; SITE 13: note = alpha-methyl-leucine; SITE 17: note = Lysine is chemically modified through conjugation of the epsilon-amino group of the Lysine side chain with (2-[2-(2-Amino-ethoxy)-ethoxy]-acetyl)
B3 showed a Relative cAMP EC50 [1] of 0.134 nM, a Relative cAMP EC50 [2] of 4.63 nM and a Relative cAMP EC50 [3] of 8.2 nM.

B4: Example 1121 (peptide)
chain: YXQGTFTSDXSQXLDKKAQXAFIEXLIEXGPSSGAPPPSGEE
modifications: Aib, 4Pal, αMeL, Me4Pal, acylated K, C-terminal amide; synthetic construct; SITE 2: note = 2-Aminoisobutyric Acid; SITE 10: note = 3-(4-Pyridyl)-L-alanine; SITE 13: note = alpha-methyl-leucine; SITE 17: note = Lysine is chemically modified through conjugation of the epsilon-amino group of the Lysine side chain with (gamma-Glu)2-CO-(CH2)16-CO2H; SITE 20:
B4 gave a Relative cAMP EC50 [1] of 0.115 nM, a Relative cAMP EC50 [2] of 5.23 nM and a Relative cAMP EC50 [3] of 8.83 nM.

B5: Example 1126 (peptide)
chain: YXQGTFTSDXSQXLDKKAQXAFIEYLIEXGPSSGAPPPSGTE
modifications: non-natural residues; (γGlu)2-C18 diacid on Lys; C-terminal amide; synthetic construct; SITE 2: note = 2-Aminoisobutyric Acid; SITE 10: note = 3-(4-Pyridyl)-L-alanine; SITE 13: note = alpha-methyl-leucine; SITE 17: note = Lysine is chemically modified through conjugation of the epsilon-amino group of the Lysine side chain with (gamma-Glu)2-CO-(CH2)16-CO2H; SITE 20:
For B5, the Relative cAMP EC50 [1] was 0.174 nM, the Relative cAMP EC50 [2] was 4.56 nM and the Relative cAMP EC50 [3] was 3.92 nM.

B6: Example 1118 (peptide)
chain: YXQGTFTSDXSQXLDKKAQXAFIEXLIEXGPSSGAPPPSGTE
modifications: Lys acylated with (γGlu)2-C18 diacid; non-natural residues; C-amide; synthetic construct; SITE 2: note = 2-Aminoisobutyric Acid; SITE 10: note = 3-(4-Pyridyl)-L-alanine; SITE 13: note = alpha-methyl-leucine; SITE 17: note = Lysine is chemically modified through conjugation of the epsilon-amino group of the Lysine side chain with (gamma-Glu)2-CO-(CH2)16-CO2H; SITE 20:
In the case of B6, the Relative cAMP EC50 [1] is reported as 0.128 nM, the Relative cAMP EC50 [2] is reported as 5.42 nM and the Relative cAMP EC50 [3] is reported as 6.52 nM.

B7: Example 693 (SEQ ID NO: 699) (peptide)
chain: YXQGTXTSDXXIXLDXKAAXEFIEXLVEGGPSSGAPPPSGS
modifications: synthetic construct; SITE 2: note = 2-Aminoisobutyric Acid; SITE 6: note = alpha-methyl-2-fluoro-L-phenylalanine; SITE 10: note = 3-(4-Pyridyl)-L-alanine; SITE 11: note = alpha-methyl-L-serine; SITE 13: note = alpha-methyl-leucine; SITE 16: note = L-ornithine; SITE 17: note = Lysine is chemically mo
In the case of B7, the Relative cAMP EC50 [1] is reported as 0.0104 nM, the Relative cAMP EC50 [2] is reported as 0.161 nM and the Relative cAMP EC50 [3] is reported as 2.39 nM.

Binder Y[Aib]QGTFTSD[4Pal]S[Dab][αMeL]LDKK([AEEA-γGlu-C18 diacid])AQ[Aib]AFIEYLIE[Aib]GPSSGAPPPSGS-NH2 [Example 803] has a Relative cAMP EC50 [1] of 0.232 nM, a Relative cAMP EC50 [2] of 2.02 nM and a Relative cAMP EC50 [3] of 9.75 nM.

B8: Example 196 (peptide)
chain: YXQGTFTSDFSXXLDKKAQXAFIEYLLEGGPSSGAPPPGGS
modifications: not fully specified; free C-terminus (not amidated); synthetic construct; SITE 2: note = 2-Aminoisobutyric Acid; SITE 12: note = L-ornithine; SITE 13: note = alpha-methyl-leucine; SITE 17: note = Lysine is chemically modified through conjugation of the epsilon-amino group of the Lysine side chain with (2-[2-(2-Amino-ethoxy)-ethoxy]-acetyl)-(gamma-Glu)
With B8 the cAMP Rel EC50, nM (1% HSA) [1] was 51.4 nM, the cAMP Rel EC50, nM (1% HSA) [2] was 458 nM and the cAMP Rel EC50, nM (1% HSA) [3] was 620 nM.

B9: Example 938 (peptide)
chain: YXQGTFTSDXSQXLDKKAQXAFIEXLLEGGPSSGAPPPSGS
modifications: synthetic construct; SITE 2: note = 2-Aminoisobutyric Acid; SITE 10: note = 3-(4-Pyridyl)-L-alanine; SITE 13: note = alpha-methyl-leucine; SITE 17: note = Lysine is chemically modified through conjugation of the epsilon-amino group of the Lysine side chain with (gamma-Glu)2-CO-(CH2)16-CO2H; SITE 20:
Work on B9 yielded a Relative cAMP EC50 [1] of 0.13 nM, a Relative cAMP EC50 [2] of 1.84 nM and a Relative cAMP EC50 [3] of 13.3 nM.

B10: Example 872 (peptide)
chain: YXQGTFTSDXSQXLDKKAQXAFIEWLIEGGPSSGAPPPSGS
modifications: synthetic construct; SITE 2: note = 2-Aminoisobutyric Acid; SITE 10: note = 3-(4-Pyridyl)-L-alanine; SITE 13: note = alpha-methyl-leucine; SITE 17: note = Lysine is chemically modified through conjugation of the epsilon-amino group of the Lysine side chain with (gamma-Glu)2-CO-(CH2)16-CO2H; SITE 20:
For B10, the Relative cAMP EC50 [1] was 0.205 nM, the Relative cAMP EC50 [2] was 1.01 nM and the Relative cAMP EC50 [3] was 4.18 nM.

B11: Example 841 (peptide)
chain: YXQGTFTSDFSQXLDKKAQXAFIEXLIEGGPSSGAPPPSGS
modifications: synthetic construct; SITE 2: note = 2-Aminoisobutyric Acid; SITE 13: note = alpha-methyl-leucine; SITE 17: note = Lysine is chemically modified through conjugation of the epsilon-amino group of the Lysine side chain with (2-[2-(2-Amino-ethoxy)-ethoxy]-acetyl)-(gamma-Glu)-CO-(CH2) 16-CO2H; SITE 20: n
In the case of B11, the Relative cAMP EC50 [1] is reported as 0.194 nM, the Relative cAMP EC50 [2] is reported as 0.336 nM and the Relative cAMP EC50 [3] is reported as 9.71 nM.

B12: Example 876 (peptide)
chain: YXQGTFTSDFSQXLDKKAQXAFIEYLIAGGPSSGAPPPSGS
modifications: not fully specified; synthetic construct; SITE 2: note = 2-Aminoisobutyric Acid; SITE 13: note = alpha-methyl-leucine; SITE 17: note = Lysine is chemically modified through conjugation of the epsilon-amino group of the Lysine side chain with (gamma-Glu)2-CO-(CH2)16-CO2H; SITE 20: note = 3-(4-Pyridyl)-L-alanine; SITE 41:
With B12 the Relative cAMP EC50 [1] was 0.053 nM, the Relative cAMP EC50 [2] was 0.456 nM and the Relative cAMP EC50 [3] was 3.28 nM.

B13: Example 941 (peptide)
chain: YXQGTFTSDXSXXLDKKAQXAFIEXLIEGGPSSGAPPPSGS
modifications: synthetic construct; SITE 2: note = 2-Aminoisobutyric Acid; SITE 10: note = 3-(4-Pyridyl)-L-alanine; SITE 12: note = L-ornithine; SITE 13: note = alpha-methyl-leucine; SITE 17: note = Lysine is chemically modified through conjugation of the epsilon-amino group of the Lysine side chain with (gamma-Gl)
B13 gave a Relative cAMP EC50 [1] of 0.183 nM, a Relative cAMP EC50 [2] of 0.764 nM and a Relative cAMP EC50 [3] of 11.7 nM.

B14: Example 875 (peptide)
chain: YXQGTFTSDFSQXLDKKAQXAFIEYLIAGGPSSGAPPPSGS
modifications: synthetic construct; SITE 2: note = 2-Aminoisobutyric Acid; SITE 13: note = alpha-methyl-leucine; SITE 17: note = Lysine is chemically modified through conjugation of the epsilon-amino group of the Lysine side chain with (2-[2-(2-Amino-ethoxy)-ethoxy]-acetyl)-(gamma-Glu)-CO-(CH2) 16-CO2H; SITE 20: n
With B14 the Relative cAMP EC50 [1] was 0.101 nM, the Relative cAMP EC50 [2] was 0.771 nM and the Relative cAMP EC50 [3] was 3.65 nM.

B15: Example 942 (peptide)
chain: YXQGTFTSDXSXXLDKKAQXAFIEXLLEGGPSSGAPPPSGS
modifications: synthetic construct; SITE 2: note = 2-Aminoisobutyric Acid; SITE 10: note = 3-(4-Pyridyl)-L-alanine; SITE 12: note = L-ornithine; SITE 13: note = alpha-methyl-leucine; SITE 17: note = Lysine is chemically modified through conjugation of the epsilon-amino group of the Lysine side chain with (gamma-Gl)
B15 was tested, and the Relative cAMP EC50 [1] was 0.188 nM, the Relative cAMP EC50 [2] was 3.52 nM and the Relative cAMP EC50 [3] was 6.32 nM.

B16: Example 1132 (peptide)
chain: YXQGTFTSDXXQXLDXKAQXQFIQXLIAXGPSSGAPPPSGGGE
modifications: not fully specified; Lys acylated γGlu-C18 diacid; non-natural residues; C-amide; synthetic construct; SITE 2: note = 2-Aminoisobutyric Acid; SITE 10: note = 3-(4-Pyridyl)-L-alanine; SITE 11: note = alpha-methyl-L-serine; SITE 13: note = alpha-methyl-leucine; SITE 16: note = L-ornithine; SITE 17: note = Lysine is chemically modified through conjugation of the epsilon-amino group
B16 was tested, and the Relative cAMP EC50 [1] was 0.0335 nM, the Relative cAMP EC50 [2] was 0.681 nM and the Relative cAMP EC50 [3] was 2.11 nM.

B17: Example 1134 (peptide)
chain: YXQGTFTSDXXQXLDXKAQXQFIQXLIEXGPSSGAPPPSGGGE
modifications: not fully specified; N-methyl-Tyr, non-natural residues, acylated Lys (γGlu-C18 diacid), C-terminal amide; synthetic construct; SITE 1: note = N-methyl-tyrosine; SITE 2: note = 2-Aminoisobutyric Acid; SITE 10: note = 3-(4-Pyridyl)-L-alanine; SITE 11: note = alpha-methyl-L-serine; SITE 13: note = alpha-methyl-leucine; SITE 16: note = L-ornithine; SITE 17: note = Lysine is chemically modified …
In the case of B17, the Relative cAMP EC50 [1] is reported as 0.0391 nM, the Relative cAMP EC50 [2] is reported as 0.957 nM and the Relative cAMP EC50 [3] is reported as 2.57 nM.

B18: Example 674 (SEQ ID NO: 680) (peptide)
chain: YXQGTXTSDXSILLDXKAQXXFIEXLEEGGPSSGAPPPSGTGE
modifications: synthetic construct; SITE 2: note = 2-Aminoisobutyric Acid; SITE 6: note = alpha-methyl-2-fluoro-L-phenylalanine; SITE 10: note = 3-(4-Pyridyl)-L-alanine; SITE 16: note = L-ornithine; SITE 17: note = Lysine is chemically modified through conjugation of the epsilon-amino group of the Lysine side chai
B18 was tested, and the Relative cAMP EC50 [1] was 0.0264 nM, the Relative cAMP EC50 [2] was 0.21 nM and the Relative cAMP EC50 [3] was 2.09 nM.
